# Literature values as cited in paper PMC7823800.
# Read-outs that look alike come from different tables or passages of the source.
# What was measured:
# TNF (Homo sapiens) [1] = target: TNF (Homo sapiens) (UniProt P01375)
# TNF (Homo sapiens) [2] = target: TNF (Homo sapiens) (UniProt P01375); remark: listed apart in the source
# Sequence of TNF (Homo sapiens) (P01375 77-233): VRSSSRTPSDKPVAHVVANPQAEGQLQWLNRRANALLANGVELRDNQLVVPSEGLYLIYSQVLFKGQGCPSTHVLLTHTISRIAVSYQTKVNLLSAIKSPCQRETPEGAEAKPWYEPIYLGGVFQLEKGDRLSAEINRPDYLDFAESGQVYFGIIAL
# Sequence of CrmB (P0DSV7 23-349): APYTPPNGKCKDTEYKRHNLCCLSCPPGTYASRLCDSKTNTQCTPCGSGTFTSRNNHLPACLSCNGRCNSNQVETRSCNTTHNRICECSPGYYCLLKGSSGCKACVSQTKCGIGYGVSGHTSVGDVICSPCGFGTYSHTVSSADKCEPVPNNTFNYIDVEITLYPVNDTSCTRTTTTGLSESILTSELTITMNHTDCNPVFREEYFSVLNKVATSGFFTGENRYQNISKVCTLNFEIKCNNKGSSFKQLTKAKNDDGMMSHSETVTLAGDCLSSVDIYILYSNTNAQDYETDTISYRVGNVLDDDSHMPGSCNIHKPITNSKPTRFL
# Sequence of TNFR2 (P20333 23-461): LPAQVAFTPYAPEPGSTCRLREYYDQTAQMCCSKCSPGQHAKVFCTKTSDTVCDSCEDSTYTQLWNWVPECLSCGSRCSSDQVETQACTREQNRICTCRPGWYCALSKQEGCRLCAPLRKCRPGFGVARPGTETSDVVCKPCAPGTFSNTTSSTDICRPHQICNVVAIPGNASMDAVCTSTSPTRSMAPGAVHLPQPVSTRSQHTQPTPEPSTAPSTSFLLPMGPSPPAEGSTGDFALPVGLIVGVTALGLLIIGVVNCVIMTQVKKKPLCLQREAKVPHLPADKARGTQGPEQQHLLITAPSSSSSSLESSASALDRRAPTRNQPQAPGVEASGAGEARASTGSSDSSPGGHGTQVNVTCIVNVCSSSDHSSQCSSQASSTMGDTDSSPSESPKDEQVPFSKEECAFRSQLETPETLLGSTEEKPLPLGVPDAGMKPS
Substance,Kd (TNF (Homo sapiens) [1]) [nM],Kd (TNF (Homo sapiens) [2]) [nM]
TNFR2 (from UniProt P20333),0.3,–
CrmB (from UniProt P0DSV7),–,0.28
